Experiments:
Experiment in all cases: cell_activity
[1] = tested on: ZFA36-ND4 (Artificial (ND4 from Clostridiales bacterium))
[2] = tested on: ZFA36-ND3 (Artificial (ND3 from Clostridium sp. 7_2_43FAA))
[3] = tested on: ZFA36-FokI (FokI-ND ZFN) (Artificial)
[4] = tested on: ZFA36-ND1 (Artificial (ND1 from Bacillus sp. SGD-V-76))
[5] = tested on: ZFA36-FokI-Sharkey (Artificial); details: SSA reporter HEK293T
[6] = tested on: TALE-ROSA26-ND1 right (Artificial); details: SSA reporter pair with left TALEN
[7] = tested on: TALE-ROSA26-FokI right (Artificial); details: SSA reporter pair with left TALEN, close to reference
ZFL1-ND1 (Artificial) = details: SSA, ZFL1-ND1 alone
[8] = tested on: TALE-HPRT1-ND1 right (Artificial); details: SSA reporter pair with left TALEN
[9] = tested on: TALE-HPRT1-FokI right (Artificial); details: SSA reporter pair with left TALEN
[10] = tested on: TALE-HPRT1-FokI left (Artificial); details: SSA reporter pair with right TALEN
[11] = tested on: TALE-HPRT1-ND1 left (Artificial); details: SSA reporter pair with right TALEN
[12] = tested on: TALE-ROSA26-ND1 left (Artificial); details: SSA reporter pair with right TALEN
[13] = tested on: TALE-ROSA26-FokI left (Artificial); details: SSA reporter pair with right TALEN, close to reference

ZFA36-FokI (FokI-ND ZFN) (Artificial), sequence (chain, as listed by the source): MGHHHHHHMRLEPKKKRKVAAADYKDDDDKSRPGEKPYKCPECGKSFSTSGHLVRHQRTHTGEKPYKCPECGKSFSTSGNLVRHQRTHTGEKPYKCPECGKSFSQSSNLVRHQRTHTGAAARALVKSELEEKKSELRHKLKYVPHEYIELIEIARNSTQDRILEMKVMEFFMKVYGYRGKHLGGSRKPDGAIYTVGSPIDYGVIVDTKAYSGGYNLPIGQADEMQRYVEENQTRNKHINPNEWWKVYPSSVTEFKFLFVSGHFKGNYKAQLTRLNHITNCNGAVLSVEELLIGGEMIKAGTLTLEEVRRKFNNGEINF
ZFA36-FokI-Sharkey (Artificial), sequence (chain, as listed by the source): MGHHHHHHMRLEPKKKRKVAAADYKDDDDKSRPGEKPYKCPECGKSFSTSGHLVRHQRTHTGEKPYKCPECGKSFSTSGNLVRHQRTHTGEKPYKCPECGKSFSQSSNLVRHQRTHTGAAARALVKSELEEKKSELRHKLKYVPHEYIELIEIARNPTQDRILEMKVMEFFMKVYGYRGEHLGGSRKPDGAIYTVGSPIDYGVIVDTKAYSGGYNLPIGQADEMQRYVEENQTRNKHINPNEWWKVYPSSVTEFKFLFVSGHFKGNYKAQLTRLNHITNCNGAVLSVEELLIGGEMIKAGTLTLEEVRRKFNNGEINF
ZFL1-ND1 (Artificial), sequence (chain, as listed by the source): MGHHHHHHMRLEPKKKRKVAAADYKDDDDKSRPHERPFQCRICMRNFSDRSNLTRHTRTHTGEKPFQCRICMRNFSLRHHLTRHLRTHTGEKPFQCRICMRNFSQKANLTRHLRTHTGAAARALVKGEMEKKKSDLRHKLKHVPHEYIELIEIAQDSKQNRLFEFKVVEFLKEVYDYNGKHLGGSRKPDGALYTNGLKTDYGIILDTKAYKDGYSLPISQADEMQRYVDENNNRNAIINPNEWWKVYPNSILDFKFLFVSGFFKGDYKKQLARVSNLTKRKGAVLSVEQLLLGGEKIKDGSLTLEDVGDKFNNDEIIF

Sequence: ACCATCTTCAAGAGAGAAGATGGC (double strand) [ZFA36-ZFA36 CHO-K1 2nd site]
- activity (% mutated clones) ([1]; CHO-K1, 0/14): 0
- activity (% mutated clones) ([2]; CHO-K1, 3/16): 18.8

Sequence: ACCATCTTCCACTCTGAAGATGGA (double strand) [ZFA36-ZFA36 CHO-K1 1st site]
- activity (% mutated clones) ([1]; CHO-K1, 0/16, no cleavage detected): 0
- activity (% mutated clones) ([2]; CHO-K1, 0/15, Cel-I about 25-45% of FokI depending on site): 0

Sequence: ACCATCTTCNNNNNNGAAGATGGT (double strand) [ZFA36-6bp-ZFA36 site]
- binding signal ([3]; SSA reporter HEK293T, reference): 1
- binding signal (fold of ZFA36-FokI) ([4]; SSA reporter HEK293T): > 1.2
- binding signal (fold of ZFA36-FokI) ([1]; SSA reporter HEK293T): 0.2
- binding signal (fold of ZFA36-FokI) [5]: 1.5
- binding signal (fold of ZFA36-FokI) ([2]; SSA reporter HEK293T): 0.2

Sequence: GCCTCGACTTGCAGATCA (double strand) [ROSA26 right half-site (top strand)]
- binding signal (fold of TALE-ROSA26-FokI) [6]: 2
- binding signal (fold of ZFA36-FokI) [7]: 1

Sequence: GTCACCTTCNNNNNNGAAGATGGT (double strand) [ZFL1-6bp-ZFA36 site]
- binding signal ([3]; SSA, ZFA36-FokI alone): 35%
- binding signal (ZFL1-ND1 (Artificial)): 40%
- binding signal ([4]; SSA, ZFA36-ND1 alone): 90%

Sequence: TCCTAATCACTATGTCGA (double strand) [HPRT1 right half-site (top strand)]
- binding signal (fold of TALE-HPRT1-FokI) [8]: 2
- binding signal (fold of ZFA36-FokI) [9]: 0.5

Sequence: TGAACCAGGCTATGACCT (double strand) [HPRT1 left half-site]
- binding signal (fold of ZFA36-FokI) [10]: 0.5
- binding signal (fold of TALE-HPRT1-FokI) [11]: 2

Sequence: TGCCCAGAAGACTCCCG (double strand) [ROSA26 left half-site]
- binding signal (fold of TALE-ROSA26-FokI) [12]: 2
- binding signal (fold of ZFA36-FokI) [13]: 1

From US20210332339
